Measurements published in the nanobody polyreactivity screen of Harvey et al. (2022).

Experiment: yeast display, Sf9 membrane polyspecificity reagent, FACS + sequencing; frameworks hold sequencing errors
Method in brief: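 Galactose induction of a Saccharomyces cerevisiae BJ5465 synthetic nanobody display library ran 36–48 hours. The cells were then stained for 1 hour at 4 °C with 10% biotinylated, detergent-solubilized Sf9 membrane reagent, pulled down on streptavidin microbeads and FACS-sorted into low and high (top ~1%) gates on expression and reagent-binding fluorescence. Labels for polyreactivity follow the gate of origin.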

Q: With “QVHLVESGGGLVQAGGSLRLICAASGYTFAFYAMGCYRQAPGKERELVAAISAGGGRTYYADSVKGRFTISRDNANNTVYLQMNSLKPEDTAVYYCATDLIQGAAPFRYDYWGQGTQVTVSS” as the sequence, how does the “polyreactivity (PSR sort gate)” value read?
A: low polyreactivity

Q: With “QVHLVESGGGLVQAGGSLRLILAASGYIFSSNAMGWYRQAPGKEREFVADISSTGGSTYYADSVKGRFTISRDNAKNTVYCQMNILKPEDTGVYYCAAYIRRYFHYDYWGQGTQVTGSS” as the sequence, how does the “polyreactivity (PSR sort gate)” value read?
A: high polyreactivity

Q: With “QVHLVESGGGLVQAGGSLRLRCAASGSNLESYAMGWYRQAPGKEMELVADITYDGGITYYADSVKGRFTISRDNAKNTVYLQMNSLKPEDTAVYYCATEYRYWQSDYSTYFPYDYWGQGTQVTVSS” as the sequence, how does the “polyreactivity (PSR sort gate)” value read?
A: low polyreactivity

Q: With “QVHLVESGGGLVQAGGSLRLSCAASGFIFSGYALGWKRQAPGKERELVAAITSSGDGTYYADSVKGRFTISRDNAKNTVYLQMNSLTPEDTAVYYCNAGRARYFWRTDRFDYWGQGTQVTVSS” as the sequence, how does the “polyreactivity (PSR sort gate)” value read?
A: high polyreactivity

Q: Which “polyreactivity (PSR sort gate)” value does the source give for “QVHLVESGGGLVQAGGSLRLSCAASGFIFTDYAMGWYRQAPGKERELVAAISSGGRTYYADSVKGRFTISRDNAKNTVYLQMNSLKPEDTAVYYCARGGRAEGWGQGTQVTVSS” here?
A: high polyreactivity

Q: Which “polyreactivity (PSR sort gate)” value does the source give for “QVHLVESGGGLVQAGGSLRLSCAASGFIFYLYAMGWYRQAPGKERELVASITSSGRTNYADSVKGRFTISRDNAKNTVYLQMNSLKPEDTAVYYCNKRYSKGDEYYYWGQGTQVTVSS” here?
A: high polyreactivity

Q: Which “polyreactivity (PSR sort gate)” value does the source give for “QVHLVESGGGLVQAGGSLRLSCAASGFLFRTYAMGWYRPGPGKERELVDAISNDANTKYADSVKGRFTISRDNAKNTVYLQMNSLKPEDTAVYYGAAKAIYRGRYLKIVKVGYWGQGTQVTVSS” here?
A: high polyreactivity

Q: With “QVHLVESGGGLVQAGGSLRLSCAASGFTFGHYAMGWYRQAPGKERELVAAITYRGGSTYYADSVKGRFTISRDNAKNTVYLQMNSLKPEDTAVYYCNADRRYKVYFAQNGHYDYWGQGTQVTVSS” as the sequence, how does the “polyreactivity (PSR sort gate)” value read?
A: high polyreactivity

Q: With “QVHLVESGGGLVQAGGSLRLSCAASGFTFLDNAMGWYRQAPGKERELVAAISGIGGSTSYADSVKGRFTISRDNAKNTVYLQMNSLKPEDTAVYYCATRWKTVGRDTIFAYDYWGQGTQVTVSS” as the sequence, how does the “polyreactivity (PSR sort gate)” value read?
A: low polyreactivity

Q: Which “polyreactivity (PSR sort gate)” value does the source give for “QVHLVESGGGLVQAGGSLRLSCAASGFTFNLYAMGWYRQAPGQERELVAAINSSGGTYYADSVKGRFTLSRDNAKNTVYLQMNSLTAEDTAVYYCAADFPYTPWSYHHHVWSPDFVYWGQGTQVTVSS” here?
A: low polyreactivity

Q: For “QVHLVESGGGLVQAGGSLRLSCAASGFTFPIYAIGWYRQAPGKERELVAAITTRGGSTYYADSVKGRFTISRDNAKNTVYLQMNSLKPEDTAVYYCNNRGRRTDYDYWGQGTQVTVSS”, which “polyreactivity (PSR sort gate)” value is on record?
A: high polyreactivity

Q: With “QVHLVESGGGLVQAGGSLRLSCAASGFTFYAMGWYRQAPGKERELVAAIDQGGDRTYYADSVKGRFTISRDNAKNTVYFQMNSLKPEDTAVYYCAARYRRTWRLIYWGQGTQVTVSS” as the sequence, how does the “polyreactivity (PSR sort gate)” value read?
A: high polyreactivity

Q: With “QVHLVESGGGLVQAGGSLRLSCAASGFTFYRYAMGWYRQAPGKERELVAAISRRGVSTDYADSVKGRFTISRDNAKNTVYLQMNSLKPEDTAVYYCAASYSRGVGKFGYWGQGSQVTVSS” as the sequence, how does the “polyreactivity (PSR sort gate)” value read?
A: high polyreactivity

Q: For “QVHLVESGGGLVQAGGSLRLSCAASGGIFKQYAMGLYRQAPGKERDLVAAITWSGGSTYYADSVKGRFTISRDNAKNTVYLQMNRLKPVDTAVYYCAADRRYLDRDKHRYGYWGQGTQVTVSS”, which “polyreactivity (PSR sort gate)” value is on record?
A: low polyreactivity

Q: Which “polyreactivity (PSR sort gate)” value does the source give for “QVHLVESGGGLVQAGGSLRLSCAASGGTFQSYAMGWYRQAPGKERELVAAITQGGGRTYYADSVKGRFTISRDNAKNTVYLQMNSLKPEDTAVYYCAARQKTPYYYNYGYWGQGTQVTVSS” here?
A: high polyreactivity

Q: For “QVHLVESGGGLVQAGGSLRLSCAASGGTFWWYTMGWYRQAPGKERELVATITRGGSTNYADSVKGRFTISRDNAKNTVYLQMNSLKPEDTAVYYCSARWYVYVHFERYYWGQGTQVTVSS”, which “polyreactivity (PSR sort gate)” value is on record?
A: high polyreactivity

Q: With “QVHLVESGGGLVQAGGSLRLSCAASGGTIGTYAMGWYRQAPGKERELVAAISGRGGSTFYADSVKGRFTISRDNAKNSVYLQMNSLKPEDTAVYYSARGHGRSSKYDYWGQGTQVTVSS” as the sequence, how does the “polyreactivity (PSR sort gate)” value read?
A: high polyreactivity

Q: For “QVHLVESGGGLVQAGGSLRLSCAASGIIFAPNAMGWYRQAPGKEREVVAGISSRGGSTYYADSVKGRFTISRDNAKNTVYLQMNSLKPEDTAVYYCAADLSYNPDEYWGQGTQVTVSS”, which “polyreactivity (PSR sort gate)” value is on record?
A: low polyreactivity

Q: Which “polyreactivity (PSR sort gate)” value does the source give for “QVHLVESGGGLVQAGGSLRLSCAASGIIFAYYAMGWYRQAPGKERELVAAISSTGSTHYADSVKGRFTISRDNAKNTVYLQMNSLKPEDTAVYYCNAYYYYRFKPSHPGLRSYYWGQGTQVTVSS” here?
A: high polyreactivity

Q: Which “polyreactivity (PSR sort gate)” value does the source give for “QVHLVESGGGLVQAGGSLRLSCAASGIIFTWYAMGMYRQAPGKEREMVAAISGSGDITYYADSVKGRFTISRDNAKNTVYLQMNSLKPEDTAVYYCAADPWTYWEDYDYWGQGTQVTVSS” here?
A: low polyreactivity

Q: With “QVHLVESGGGLVQAGGSLRLSCAASGIILYRNAMGWYRQAPGKERELVAAITNTGSRTYYADSVKGRFTISRDNAKNTVYLQMTSLKPEDTAVYYCAAYYYYSAYGDDYWGQGTQVTVSS” as the sequence, how does the “polyreactivity (PSR sort gate)” value read?
A: high polyreactivity

Q: With “QVHLVESGGGLVQAGGSLRLSCAASGITFKWNDMGWYRQAPGKEREFVAAITGSTGSTFYADSVKGRFTISRDNAKNTVYLQMNSLKPEDTAVYFCAAGPWFYYWRQGTQVTVSS” as the sequence, how does the “polyreactivity (PSR sort gate)” value read?
A: low polyreactivity

Q: For “QVHLVESGGGLVQAGGSLRLSCAASGITFYRYAMGWYRQAPWKERELVAAITVGGRTYYADSVKGRFTISRDNAKNNVYLQMNSLKPEDTAVYYCNVRTLHSVRGYYYWGQGTQVTVSS”, which “polyreactivity (PSR sort gate)” value is on record?
A: high polyreactivity

Q: For “QVHLVESGGGLVQAGGSLRLSCAASGKIFRSYMGWYRQAPGKERELVASISRRGGSTYYADSEKGRFTISRDNAKNTVTLQMISLKPEDTAVYYCANVVNYPSARYCYWGQGTQVTVSS”, which “polyreactivity (PSR sort gate)” value is on record?
A: high polyreactivity

Q: Which “polyreactivity (PSR sort gate)” value does the source give for “QVHLVESGGGLVQAGGSLRLSCAASGLIFVKYALGWYRQAPGKEREFVAAITRSGGTTYYADSVKGRFTISRDNAKNTVYLQMNSLKPEDTAVYYCAAGVVIYFFGGGDYWGQGTQVTVSS” here?
A: low polyreactivity

Q: For “QVHLVESGGGLVQAGGSLRLSCAASGLIFVYNAMGWYRQAPGKERELVAGITSGGSTYYADSVKGRFTISRDNAKNTVYLQMNSLKPEDTAVSYCAAGYYDLYLWWGYDYWGQGTQVTVSS”, which “polyreactivity (PSR sort gate)” value is on record?
A: high polyreactivity

Q: Which “polyreactivity (PSR sort gate)” value does the source give for “QVHLVESGGGLVQAGGSLRLSCAASGLTFAYYAMGWYRQAPGKERELVAAITDSAGNTYYADSVKGRFTISRDNAKNTVYLQMNSLKQEDTAVYYCAAAWPSTGLLYVLGYSGYGYWGQGTQVTVSS” here?
A: low polyreactivity

Q: Which “polyreactivity (PSR sort gate)” value does the source give for “QVHLVESGGGLVQAGGSLRLSCAASGNSFTGNAMGWYRQAPGKETELVAALSKRGGSTFYADSVKGRFTISRDNPKNTVYLQLNRLKPEDTAVYYCNALRRGVRDPYGYWGQGTQVTVSS” here?
A: high polyreactivity

Q: With “QVHLVESGGGLVQAGGSLRLSCAASGNTFYAYARGWYRQAPGKERELVAAIARAGNTYYADSVKGRFTISRDNAKNTVYLQMNSLKPEDTAVYYCNADDWWYGDNYWGQGTEVTVSS” as the sequence, how does the “polyreactivity (PSR sort gate)” value read?
A: high polyreactivity

Q: For “QVHLVESGGGLVQAGGSLRLSCAASGNTFYQYAMGWYRQAPGKERELVAAISSSGGSTYYADSVKGRFTISRDNAKNTVYLQMNSLKPEDTAVYYCATDKWYGYYYWGPGTQVTVSS”, which “polyreactivity (PSR sort gate)” value is on record?
A: low polyreactivity

Q: With “QVHLVESGGGLVQAGGSLRLSCAASGNTLRVYTKGWYRQAPWKERELVAAISRRGSRTYYADTVKGRFTISRENAKYTVYLQMNSLKPEDTAVYYCAAGIPYPDDYWGQGTQVTVSS” as the sequence, how does the “polyreactivity (PSR sort gate)” value read?
A: high polyreactivity

Q: Which “polyreactivity (PSR sort gate)” value does the source give for “QVHLVESGGGLVQAGGSLRLSCAASGRIFDYNTMGWYRQAPGKERELVAAITGGTGSTYYADSVKGRFTISRDNAKNTVYLQMNSLKPEDTAVYYCAAGFHKRVTPEILYDYWGQGTQLTVSS” here?
A: low polyreactivity

Q: For “QVHLVESGGGLVQAGGSLRLSCAASGRIFGEYAMGWYRQAPGKERELVAAISYRGGRTYYADSVKGRFTISRDNAKNTVYLQMNSLKPEDTAVYYCAKTNRDEYDYWGQGTQVTVSS”, which “polyreactivity (PSR sort gate)” value is on record?
A: high polyreactivity

Q: For “QVHLVESGGGLVQAGGSLRLSCAASGRIFGGNVMGWYIQAPGKERELVAAISWSSGSTYYADSVKVLFTISLDNAKNTVYLQMNSQKPDDTSFYYCAADNSFRGYHSPYDYWGQGTQVTVSS”, which “polyreactivity (PSR sort gate)” value is on record?
A: low polyreactivity

Q: With “QVHLVESGGGLVQAGGSLRLSCAASGRIFGKYAMGWYRQAPGKERELVAAISSSGRTNSADSVKGRFTISRDNAKNTVYLQMNSLKPADTAVYYCAVRVLIHTNTRRLDYWGQGTQVTVSS” as the sequence, how does the “polyreactivity (PSR sort gate)” value read?
A: high polyreactivity

Q: For “QVHLVESGGGLVQAGGSLRLSCAASGRIFNYYAMGWYRQAHGKERELVAAISNGGSTYYADSVKGRFTISRDNAKNTVYLQMNSLKPEDTAVYYCNAAARNGYARRVYYWGQGTQVTVSS”, which “polyreactivity (PSR sort gate)” value is on record?
A: high polyreactivity

Q: With “QVHLVESGGGLVQAGGSLRLSCAASGRIFSVYAMGWYRQAPGKERELVAVITTSGGSTYYADSVKGRFTISRGNAKNTVYLQMNSLKPEDTAVYYCNAEPWSYAIGSYEYWGQGTQVTVSS” as the sequence, how does the “polyreactivity (PSR sort gate)” value read?
A: high polyreactivity

Q: Which “polyreactivity (PSR sort gate)” value does the source give for “QVHLVESGGGLVQAGGSLRLSCAASGRIFTYYAMGWYRQAPGKEREFVAAIRRSGGSTDYADSVKGRFTISRDNAKNTVYLQMNSLKPEDTAVYYCAAESPTYPGGEYWGQGTQVTVSS” here?
A: high polyreactivity

Q: For “QVHLVESGGGLVQAGGSLRLSCAASGRIFWLYAMGWYRQAPGKERELVAAISSGGSTSYADSVKGRFTISRDNAKNTVYLQMNSLKPEDTAVYYCNATLLFPLLYGPESGEFDYWGQGTQVTVSS”, which “polyreactivity (PSR sort gate)” value is on record?
A: low polyreactivity

Q: Which “polyreactivity (PSR sort gate)” value does the source give for “QVHLVESGGGLVQAGGSLRLSCAASGRLSQNAMGGYRQAPGKERELVAAITFSGGSTYYADSVKGRFTISRDNAKNTVYLQMNSLKPEDTAVYYCAADDRPLYWRFPDEMDYWGQGTQVTVSS” here?
A: low polyreactivity

Q: With “QVHLVESGGGLVQAGGSLRLSCAASGRNFAYNAMGWYRQAPGKETELVASFTSGGSTNYADSVKGRFTISRDNANNTVYLQMNSLKPEDSAVYYCNKDGKYHRVLYDYWGQGTQVTVSS” as the sequence, how does the “polyreactivity (PSR sort gate)” value read?
A: low polyreactivity
